Laboratory results as given in patent US20160220669A1.

Legend:
Experiment in all cases: cell-based or functional assay
[1] = target: CSF-1R of cynomolgous monocytes (cynomolgous)
[2] = target: human mutant CSF-1R L301S Y969F (human) (UniProt P07333)
[3] = target: human wildtype CSF-1R (full-length) (human) (UniProt P07333)

| % inhibition 10 µg/ml antibody concentration (BeWo cells, CSF-1 induced growth) [3] [%] | Substance | % survival (cynomolgous monocytes with huCSF-1, 5 µg/ml antibody) [1] [%] | Mutant CSF-1R IC30 (cell viability, CellTiterGlo, 3D culture) [2] [µg/mL] | Mutant CSF-1R IC50 (cell viability, CellTiterGlo, 3D culture) [2] [µg/mL] | wtCSF-1R IC30 (cell viability, CellTiterGlo, 3D culture) [3] [µg/mL] | wtCSF-1R IC50 (cell viability, CellTiterGlo, 3D culture) [3] [µg/mL] |
| --- | --- | --- | --- | --- | --- | --- |
| 39 | Anti CSF-1R SC 2-4A5 (Santa Cruz Biotechnology, US) (antibody) | 31 | 2.56 | 10 | 16.6 | 10 |
| – | goat polyclonal anti-CSF-1R antibody ab10676 (abcam) | – | > 20 | – | 14.2 | – |
